Measurements: patent US20250382374A1 (VIRIDIAN THERAPEUTICS, published 2025)
Values belong to the binder of their own block, whether it stands above or below them.

Key:
[1] = target: T1, IGF-1R on A549 human lung adenocarcinoma cells or primary human ocular choroid fibroblasts (HOCF) (human, UniProt P08069 31-1367); test: cell-based or functional assay
[2] = target: T1, IGF-1R on A549 human lung …; test: flow cytometry on A549 cells, binding dose response curve (MFI)
Description: (§1) Unbound antibody was removed by washing, and the cells were incubated with an Alexa Fluor 488™—goat anti-human antibody (fluorescently labeled antibody) and a cell impermeable dye to gate live cells. The median fluorescence intensity (MFI) of viable cells was measured by flow cytometry and the data were analyzed using FlowJo™ software. Dose curves were fitted using a non-linear regression model; log (agonist) vs response-variable slope (four parameters).

[3] = target: T1, IGF-1R on A549 human lung …; test: flow cytometry on HOCF cells, binding dose response curve (MFI)
Description: as §1

[4] = target: IGF-1R (as used in the surface plasmon resonance assay of Example 7) (UniProt P08069 31-932, limits assumed); test: SPR, pH 7.4
[5] = target: T1, IGF-1R on A549 human lung …; test: cell based binding assay on A549 cells; YTE only heavy chain (SEQ ID NO: 94)
[6] = target: T1, IGF-1R on A549 human lung …; test: cell based binding assay on A549 cells; C22S plus YTE heavy chain (SEQ ID NO: 95)

T1 sequence (P08069 31-1367): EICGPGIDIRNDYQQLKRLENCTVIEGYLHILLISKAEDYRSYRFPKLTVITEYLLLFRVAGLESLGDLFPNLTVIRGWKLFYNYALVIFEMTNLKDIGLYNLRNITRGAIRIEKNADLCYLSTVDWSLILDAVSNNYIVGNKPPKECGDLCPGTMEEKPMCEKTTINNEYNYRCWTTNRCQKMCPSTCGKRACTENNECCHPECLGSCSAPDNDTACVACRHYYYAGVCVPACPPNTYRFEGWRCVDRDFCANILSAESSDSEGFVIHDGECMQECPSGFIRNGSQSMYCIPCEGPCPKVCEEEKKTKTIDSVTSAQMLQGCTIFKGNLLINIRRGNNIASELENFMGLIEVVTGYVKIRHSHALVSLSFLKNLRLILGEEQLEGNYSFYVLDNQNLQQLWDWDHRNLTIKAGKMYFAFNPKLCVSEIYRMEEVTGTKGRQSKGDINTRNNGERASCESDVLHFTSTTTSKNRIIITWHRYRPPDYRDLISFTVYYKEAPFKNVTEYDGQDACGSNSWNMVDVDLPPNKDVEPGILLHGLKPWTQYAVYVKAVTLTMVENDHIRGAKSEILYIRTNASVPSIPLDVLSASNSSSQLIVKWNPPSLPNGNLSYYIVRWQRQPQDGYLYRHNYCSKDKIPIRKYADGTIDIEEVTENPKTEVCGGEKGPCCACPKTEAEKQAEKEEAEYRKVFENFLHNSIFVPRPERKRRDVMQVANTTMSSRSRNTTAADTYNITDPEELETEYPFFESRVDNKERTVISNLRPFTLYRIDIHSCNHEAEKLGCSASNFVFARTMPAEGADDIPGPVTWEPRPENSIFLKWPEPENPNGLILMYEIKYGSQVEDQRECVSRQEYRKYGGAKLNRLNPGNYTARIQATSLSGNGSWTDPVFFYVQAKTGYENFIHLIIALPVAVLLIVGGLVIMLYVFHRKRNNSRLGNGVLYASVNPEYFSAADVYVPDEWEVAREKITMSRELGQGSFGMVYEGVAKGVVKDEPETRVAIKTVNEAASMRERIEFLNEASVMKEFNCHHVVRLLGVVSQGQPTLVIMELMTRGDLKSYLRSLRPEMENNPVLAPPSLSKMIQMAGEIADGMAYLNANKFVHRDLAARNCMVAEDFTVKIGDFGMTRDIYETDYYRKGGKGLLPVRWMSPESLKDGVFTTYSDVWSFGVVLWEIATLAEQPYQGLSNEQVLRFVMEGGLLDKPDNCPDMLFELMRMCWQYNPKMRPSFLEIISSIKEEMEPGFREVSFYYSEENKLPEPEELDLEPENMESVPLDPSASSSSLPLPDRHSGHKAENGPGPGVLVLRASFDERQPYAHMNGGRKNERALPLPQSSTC
IGF-1R (as used in the surface plasmon resonance assay of Example 7), sequence (P08069 31-932 limits assumed): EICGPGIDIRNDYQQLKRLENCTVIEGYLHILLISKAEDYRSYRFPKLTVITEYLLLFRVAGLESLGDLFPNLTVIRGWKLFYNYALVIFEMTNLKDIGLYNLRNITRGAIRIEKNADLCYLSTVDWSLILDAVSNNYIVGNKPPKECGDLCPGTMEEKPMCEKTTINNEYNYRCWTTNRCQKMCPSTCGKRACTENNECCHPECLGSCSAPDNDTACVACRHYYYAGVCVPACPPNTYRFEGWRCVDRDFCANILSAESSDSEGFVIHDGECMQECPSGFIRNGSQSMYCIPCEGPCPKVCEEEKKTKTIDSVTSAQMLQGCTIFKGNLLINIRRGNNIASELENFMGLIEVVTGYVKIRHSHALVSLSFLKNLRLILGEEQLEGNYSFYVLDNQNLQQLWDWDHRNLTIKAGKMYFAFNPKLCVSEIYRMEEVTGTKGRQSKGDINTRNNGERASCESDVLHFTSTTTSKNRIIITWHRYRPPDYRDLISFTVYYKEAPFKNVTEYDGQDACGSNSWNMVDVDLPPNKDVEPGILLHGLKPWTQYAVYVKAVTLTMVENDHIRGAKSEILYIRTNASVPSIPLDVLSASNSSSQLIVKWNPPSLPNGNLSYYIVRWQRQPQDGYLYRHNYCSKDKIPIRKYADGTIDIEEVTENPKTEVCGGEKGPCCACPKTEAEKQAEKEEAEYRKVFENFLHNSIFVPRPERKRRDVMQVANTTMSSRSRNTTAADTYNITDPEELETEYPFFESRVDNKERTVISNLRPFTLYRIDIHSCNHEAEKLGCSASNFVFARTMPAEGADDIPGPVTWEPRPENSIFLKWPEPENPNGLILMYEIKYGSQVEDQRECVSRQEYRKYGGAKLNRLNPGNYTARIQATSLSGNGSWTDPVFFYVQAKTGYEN

B1: VRDN-1100 (antibody, V domains shown)
VH: QVQLVQSGAEVVKPGASVKLSCKASGYTFTSYWMHWVKQRPGQGLEWIGEINPSNGRTNYNQKFQGKATLTVDKSSSTAYMQLSSLTSEDSAVYYFARGRPDYYGSSKWYFDVWGQGTTVTVSS
VL: DVVMTQTPLSLPVSLGDPASISCRSSQSIVHSNVNTYLEWYLQKPGQSPRLLIYKVSNRFSGVPDRFSGSGAGTDFTLRISRVEAEDLGIYYCFQGSHVPPTFGGGTKLEIKR
notes: Humanized monoclonal antibody to IGF-1R; also called VRDN-01100
IC50 of inhibition of IGF-1 stimulated receptor phosphorylation on A549 cells (pIGF-1R ELISA) [1]: 90 pM
IC50 of inhibition of IGF-1 stimulated receptor phosphorylation on HOCF cells (pIGF-1R ELISA) [1]: 90 pM
EC50 [2]: 0.1 nM
EC50 [3]: 0.4 nM

B3: VRDN-1100 with the Fc YTE mutations in the heavy chain (antibody, human IgG1, kappa)
heavy: QVQLVQSGAEVVKPGASVKLSCKASGYTFTSYWMHWVKQRPGQGLEWIGEINPSNGRTNYNQKFQGKATLTVDKSSSTAYMQLSSLTSEDSAVYYFARGRPDYYGSSKWYFDVWGQGTTVTVSSASTKGPSVFPLAPSSKSTSGGTAALGCLVKDYFPEPVTVSWNSGALTSGVHTFPAVLQSSGLYSLSSVVTVPSSSLGTQTYICNVNHKPSNTKVDKKVEPKSCDKTHTCPPCPAPELLGGPSVFLFPPKPKDTLYITREPEVTCVVVDVSHEDPEVKFNWYVDGVEVHNAKTKPREEQYNSTYRVVSVLTVLHQDWLNGKEYKCKVSNKALPAPIEKTISKAKGQPREPQVYTLPPSRDELTKNQVSLTCLVKGFYPSDIAVEWESNGQPENNYKTTPPVLDSDGSFFLYSKLTVDKSRWQQGNVFSCSVMHEALHNHYTQKSLSLSPG
light: DVVMTQTPLSLPVSLGDPASISCRSSQSIVHSNVNTYLEWYLQKPGQSPRLLIYKVSNRFSGVPDRFSGSGAGTDFTLRISRVEAEDLGIYYCFQGSHVPPTFGGGTKLEIKRTVAAPSVFIFPPSDEQLKSGTASVVCLLNNFYPREAKVQWKVDNALQSGNSQESVTEQDSKDSTYSLSSTLTLSKADYEKHKVYACEVTHQGLSSPVTKSFNRGEC
notes: also called YTE Fc mutatant version of VRDN1100; YTE only mutant
IC50 of inhibition of IGF-1R autophosphorylation [1]: 0.4 nM
EC50 [5]: 0.3 nM

Second part, the binder after the results:

Kd [4]: 0.21 nM
koff [4]: 2.18e-05 s⁻¹
kon [4]: 104000 M⁻¹ s⁻¹
B2: mutant of VRDN-1100 with a C22S mutation in the heavy chain (antibody, V domains shown)
VH: QVQLVQSGAEVVKPGASVKLSSKASGYTFTSYWMHWVKQRPGQGLEWIGEINPSNGRTNYNQKFQGKATLTVDKSSSTAYMQLSSLTSEDSAVYYFARGRPDYYGSSKWYFDVWGQGTTVTVSS
VL: DVVMTQTPLSLPVSLGDPASISCRSSQSIVHSNVNTYLEWYLQKPGQSPRLLIYKVSNRFSGVPDRFSGSGAGTDFTLRISRVEAEDLGIYYCFQGSHVPPTFGGGTKLEIK

IC50 of inhibition of IGF-1R autophosphorylation [1]: 0.37 nM
EC50 [6]: 0.36 nM
B4: VRDN-1100 with C22S mutation and Fc YTE mutations in the heavy chain (antibody, human IgG1, kappa)
heavy: QVQLVQSGAEVVKPGASVKLSSKASGYTFTSYWMHWVKQRPGQGLEWIGEINPSNGRTNYNQKFQGKATLTVDKSSSTAYMQLSSLTSEDSAVYYFARGRPDYYGSSKWYFDVWGQGTTVTVSSASTKGPSVFPLAPSSKSTSGGTAALGCLVKDYFPEPVTVSWNSGALTSGVHTFPAVLQSSGLYSLSSVVTVPSSSLGTQTYICNVNHKPSNTKVDKKVEPKSCDKTHTCPPCPAPELLGGPSVFLFPPKPKDTLYITREPEVTCVVVDVSHEDPEVKFNWYVDGVEVHNAKTKPREEQYNSTYRVVSVLTVLHQDWLNGKEYKCKVSNKALPAPIEKTISKAKGQPREPQVYTLPPSRDELTKNQVSLTCLVKGFYPSDIAVEWESNGQPENNYKTTPPVLDSDGSFFLYSKLTVDKSRWQQGNVFSCSVMHEALHNHYTQKSLSLSPG
light: DVVMTQTPLSLPVSLGDPASISCRSSQSIVHSNVNTYLEWYLQKPGQSPRLLIYKVSNRFSGVPDRFSGSGAGTDFTLRISRVEAEDLGIYYCFQGSHVPPTFGGGTKLEIKRTVAAPSVFIFPPSDEQLKSGTASVVCLLNNFYPREAKVQWKVDNALQSGNSQESVTEQDSKDSTYSLSSTLTLSKADYEKHKVYACEVTHQGLSSPVTKSFNRGEC
notes: also called C22S and Fc YTE mutant; C22S plus YTE mutations
